Results published in the Human Domainome abundance scans (Beltran et al. 2025).
± gives the uncertainty stated by the source.

B1: Transcription factor SOX-11, residues 50 to 117; numbered along this chain, P35716 (parent)
chain: KRPMNAFMVWSKIERRKIMEQSPDMHNAEISKRLGKRWKMLKDSEKIPFIREAERLRLKHMADYPDYK

Variants of: B1
Test: abundance fitness (aPCA) (normalised: wild type 0, dead -1); higher = more abundant; growth selection in yeast, the domain comes from the species named
Details: Homo sapiens

| Variant | abundance fitness |
| --- | --- |
| I18C | -0.714 ± 0.1 |
| I18V | -0.307 ± 0.059 |
| I18T | -0.884 ± 0.17 |
| I18A | -0.521 ± 0.11 |
| S11C | -0.4 ± 0.1 |
| S11I | -1.19 ± 0.27 |
| S11Y | -0.267 ± 0.098 |
| S11T | -0.602 ± 0.2 |
| M25N | -0.418 ± 0.075 |
| M25F | -0.571 ± 0.084 |
| M25G | -0.759 ± 0.071 |
| M25T | -0.317 ± 0.089 |
| M25H | -0.641 ± 0.11 |
| A28P | -0.562 ± 0.1 |
| A28L | -0.211 ± 0.066 |
| A28D | 0.205 ± 0.056 |
| A28K | -0.278 ± 0.12 |
| R2Y | 0.272 ± 0.061 |
| R2G | 0.03 ± 0.049 |
| R2N | 0.166 ± 0.059 |
| R2C | 0.041 ± 0.054 |
| R2P | -0.011 ± 0.085 |
| R2I | 0.113 ± 0.055 |
| R2D | 0.146 ± 0.069 |

| Variant | abundance fitness |
| --- | --- |
| R2H | 0.086 ± 0.077 |
| K17G | -0.756 ± 0.1 |
| K17W | -1.17 ± 0.34 |
| K17A | -0.484 ± 0.096 |
| K17T | -0.458 ± 0.093 |
| E20S | -0.36 ± 0.063 |
| E20N | -0.236 ± 0.08 |
| E20F | -0.496 ± 0.067 |
| I47A | 0.061 ± 0.051 |
| I47S | -0.279 ± 0.04 |
| I47D | -0.107 ± 0.045 |
| E14N | -0.338 ± 0.089 |
| E14L | -1.05 ± 0.14 |
| E14M | -0.352 ± 0.17 |
| E14P | -0.739 ± 0.22 |
| N27F | -0.128 ± 0.056 |
| N27R | -0.341 ± 0.07 |
| N27M | -0.287 ± 0.15 |
| D66R | -0.38 ± 0.31 |
| D66C | -0.278 ± 0.13 |
| F49V | -0.635 ± 0.067 |
| F49L | -0.731 ± 0.09 |
| F49I | -0.694 ± 0.074 |
| D63N | 0.113 ± 0.26 |

| Variant | abundance fitness |
| --- | --- |
| M8H | -0.033 ± 0.059 |
| M8W | -0.446 ± 0.18 |
| M8N | -0.111 ± 0.054 |
| M8I | -0.117 ± 0.047 |
| M8Y | -0.089 ± 0.051 |
| M8D | 0.456 ± 0.069 |
| F7I | -0.795 ± 0.1 |
| F7W | -0.018 ± 0.17 |
| F7L | -0.958 ± 0.12 |
| F7A | -0.75 ± 0.12 |
| F7R | -0.478 ± 0.082 |
| F7H | -0.879 ± 0.12 |
| F7V | -1.03 ± 0.14 |
| N5D | 0.147 ± 0.055 |
| N5A | -0.474 ± 0.096 |
| N5W | -0.438 ± 0.13 |
| N5R | -0.852 ± 0.11 |
| N5F | -0.712 ± 0.08 |
| N5Y | -0.524 ± 0.061 |
| N5H | -0.621 ± 0.09 |
| K59A | 0.087 ± 0.062 |
| K59L | 0.12 ± 0.053 |
| K59I | -0.054 ± 0.054 |
| K59Y | -0.192 ± 0.056 |

| Variant | abundance fitness |
| --- | --- |
| K59N | 0.026 ± 0.053 |
| K59M | 0.039 ± 0.089 |
| K12I | -0.099 ± 0.059 |
| K12V | 0.012 ± 0.05 |
| K12Y | -0.448 ± 0.078 |
| K12Q | 0.007 ± 0.19 |
| K12E | 0.359 ± 0.14 |
| K12M | -0.043 ± 0.25 |
| K12L | -0.016 ± 0.074 |
| K12H | -0.006 ± 0.064 |
| R51C | -0.304 ± 0.058 |
| R51G | -0.606 ± 0.068 |
| R51A | -0.069 ± 0.054 |
| R51D | -0.129 ± 0.058 |
| R51Q | 0.189 ± 0.15 |
| R51I | -0.104 ± 0.051 |
| R51M | 0.141 ± 0.14 |
| K1C | -0.056 ± 0.075 |
| K1D | 0.21 ± 0.059 |
| K1Y | 0.032 ± 0.065 |
| R33K | -0.075 ± 0.18 |
| R33S | 0 ± 0.047 |
| R33Q | 0.465 ± 0.13 |
| R33D | 0.169 ± 0.068 |

| Variant | abundance fitness |
| --- | --- |
| P23S | -0.453 ± 0.058 |
| P23K | -1.28 ± 0.44 |
| P23Y | -0.665 ± 0.09 |
| P23D | -0.739 ± 0.093 |
| P23L | -0.287 ± 0.068 |
| P23V | -0.598 ± 0.07 |
| P23G | -0.431 ± 0.064 |
| I30N | -0.701 ± 0.092 |
| I30M | -0.711 ± 0.17 |
| I30D | -0.779 ± 0.11 |
| I30V | 0.039 ± 0.051 |
| I30Y | -0.596 ± 0.065 |
| I30K | -1.09 ± 0.26 |
| K36Y | 0.041 ± 0.056 |
| K36F | -0.149 ± 0.058 |
| K36D | 0.247 ± 0.059 |
| K36T | 0.155 ± 0.066 |
| A53N | -0.474 ± 0.11 |
| A53F | -0.64 ± 0.081 |
| A53P | -0.478 ± 0.11 |
| A53T | -0.649 ± 0.11 |
| A53H | -0.741 ± 0.1 |
| A53Y | -0.813 ± 0.09 |
| A53G | -0.946 ± 0.087 |

| Variant | abundance fitness |
| --- | --- |
| P48F | -0.285 ± 0.075 |
| P48L | -0.572 ± 0.098 |
| P48H | -0.355 ± 0.075 |
| P48Q | -0.24 ± 0.16 |
| P48V | -0.261 ± 0.077 |
| P48G | -0.384 ± 0.098 |
| P3R | -0.407 ± 0.077 |
| P3S | 0.097 ± 0.062 |
| P3I | -0.279 ± 0.1 |
| P3Q | 0.119 ± 0.21 |
| P3N | 0.199 ± 0.077 |
| P3C | -0.442 ± 0.088 |
| H26F | -0.497 ± 0.062 |
| H26E | 0.383 ± 0.14 |
| H26P | 0.205 ± 0.065 |
| M4S | -0.334 ± 0.052 |
| M4E | -0.004 ± 0.18 |
| M4H | -0.423 ± 0.086 |
| M4W | -0.251 ± 0.13 |
| M4I | 0.158 ± 0.05 |
| M4R | -0.874 ± 0.11 |
| M4N | -0.292 ± 0.058 |
| R55N | -0.087 ± 0.055 |
| R55E | -0.017 ± 0.14 |

| Variant | abundance fitness |
| --- | --- |
| K46G | -0.671 ± 0.1 |
| K46L | -0.982 ± 0.11 |
| K46S | -0.996 ± 0.08 |
| K46Y | -0.968 ± 0.081 |
| K46M | -0.85 ± 0.3 |
| K46C | -0.848 ± 0.088 |
| K46D | -0.777 ± 0.098 |
| K46V | -0.647 ± 0.084 |
| L56D | -0.247 ± 0.069 |
| L56S | -0.199 ± 0.051 |
| L56F | -0.377 ± 0.056 |
| L56T | -0.267 ± 0.076 |
| L56P | -1.1 ± 0.22 |
| L56C | -0.533 ± 0.078 |
| E54Q | -0.364 ± 0.16 |
| E54P | -0.925 ± 0.16 |
| E54A | -0.425 ± 0.072 |
| E54D | -0.323 ± 0.066 |
| E54M | -0.833 ± 0.34 |
| E54K | -0.826 ± 0.24 |
| K32D | 0.047 ± 0.059 |
| K32E | 0.245 ± 0.16 |
| K32M | -0.17 ± 0.13 |
